According to patent US20210347868A1 (published 2021):

B1: human anti-alpha-synuclein antibody 336.1 (hantiAsyn-336.1) (antibody, V domains shown)
VH: EVQLVQSGGTLVQPGGSLRLSCAASGFTFSTYAISWVRQAPGRGLEWVSFITGDGSRILYADSVRGRFSISRDNSKNTLYLQMNSLRTDDTAMYYCVFNHYWGQGTLVTVSS
VL: AIQLTQSPDSLAVSLGERATINCKASQSLLYSSNNRNYLAWYQQKPGQPPKALIYWASTRESGVPDRFSGSGSGTDFTLTISSLQAEDVAVYYCHQYYTTHSFGQGTKLEIK
B2: human anti-alpha-synuclein antibody 323.1 (hantiAsyn-323.1) (antibody, V domains shown)
VH: EVQLLESGGGLVQPGGSLKLSCAASGFTFSASAMHWVRQTSDKRLEWVGRIRNKANNYATAYAASVKGRFTISRDDSKNTAYLQMNSLKTEDTAVYYCTRHLSLGGNSVDYWGQGTPVTVSS
VL: DVVMTQSPLSSPVTLGQPASISCRASQSPVHSDGNTYLSWLQQRPGQPPRLLIYTISNRFPGVPDRFSGSGAGTDFTLRISRVEAEDVGVYYCMQGTQFPYTFGQGTKLEIK

Key:
[1] = molecular target: T1, biotinylated alpha-synuclein peptide, residues 111-140 (human, biotinylated (position not given)); assay: Octet biolayer interferometry, biotinylated peptide on streptavidin biosensor
T1 construct: also called syn111-140

[2] = molecular target: full-length (140 amino acid) human alpha-synuclein with C-terminal AviTag, biotinylated, his-tag removed by … (human, UniProt P37840 1-140); assay: isothermal titration calorimetry in PBS, antibody:synuclein (1:2) model; Kd only on the graph
Procedure: FIGS. 5A-5C show affinity binding of human anti-synuclein antibodies for full-length synuclein protein as determined by isothermal titration calorimetry (ITC). […] The thermodynamic parameters and the equilibrium dissociation constants, Kd, were determined upon fitting the ITC data to a model assuming a single set of binding sites corresponding to an antibody:synuclein (1:2) binding model. Continuous lines represent the best fit of experimental data assuming a single set of binding sites. Experiments were performed in PBS. Equilibrium dissociation constants (Kd) are shown on the individual graphs.
The affinities of antibodies for full length synuclein protein were determined in solution on a MicroCal Auto-iTC200 system (Malvern Panalystical; Malvern, United Kingdom). […] The thermodynamic parameters and the equilibrium dissociation constants, Kd, were determined upon fitting the ITC data to a model assuming a single set of binding sites corresponding to an antibody:synuclein (1:2) binding model (FIG. 5).

[3] = molecular target: T2, biotinylated alpha-synuclein peptide, residues 121-140 (human, biotinylated (position not given)); assay: Octet biolayer interferometry; table of peptide regions bound by anti-synuclein mAbs
T2 construct: also called syn121-140

Binder	binding result [1]	binding result [2]	binding result [3]
B1	binds	binds	–
B2	binds	binds	binds
